Experimental data as given in patent US20240287138A1 (Merck Sharp & Dohme, published 2024).
Bridge positions count the residues as written; N and C are the ends. Square brackets hold non-standard residues; d marks the D form. Primed or numbered codes have the meaning given here. Trp(βS-Me,7-OMe) = COc1cccc2c([C@H](C)[C@H](N)C(=O)O)c[nH]c12; Phe(2-F,4-COOH) = N[C@@H](Cc1ccc(C(=O)O)cc1F)C(=O)O; Trp(7-CN) = N#Cc1cccc2c(C[C@H](N)C(=O)O)c[nH]c12; Trp(7-Cl) = N[C@@H](Cc1c[nH]c2c(Cl)cccc12)C(=O)O; Phe(3-COOH) = N[C@@H](Cc1cccc(C(=O)O)c1)C(=O)O; Phe(4-CONH2) = NC(=O)c1ccc(C[C@H](N)C(=O)O)cc1; Phe(4-COOH) = N[C@@H](Cc1ccc(C(=O)O)cc1)C(=O)O; Trp(7-aza) = N[C@@H](Cc1c[nH]c2ncccc12)C(=O)O; Phe(4-CH2NH2) = NCc1ccc(C[C@H](N)C(=O)O)cc1; 3Pal = N[C@@H](Cc1cccnc1)C(=O)O; 4Pal = N[C@@H](Cc1ccncc1)C(=O)O; NMeE = CN[C@@H](CCC(=O)O)C(=O)O; dHyp = O=C(O)[C@H]1C[C@H](O)CN1; dNMeE = CN[C@H](CCC(=O)O)C(=O)O; d(αMeP) = C[C@]1(C(=O)O)CCCN1; Phe4AcPip = not defined here; Pipt5OH = not defined here; αMeS = C[C@](N)(CO)C(=O)O; Nle = CCCC[C@H](N)C(=O)O; Pip2c = not defined here; TZAla = not defined here; cAcBu = not defined here; Ahp′ = not defined here; Pip′ = not defined here; MO2 = not defined here; Qdm = not defined here; Sar = CNCC(=O)O

T1: TNFR1 on THP-1 Lucia NF-kB reporter cells (UniProt P19438 30-455, limits assumed)
T1 sequence (looked up): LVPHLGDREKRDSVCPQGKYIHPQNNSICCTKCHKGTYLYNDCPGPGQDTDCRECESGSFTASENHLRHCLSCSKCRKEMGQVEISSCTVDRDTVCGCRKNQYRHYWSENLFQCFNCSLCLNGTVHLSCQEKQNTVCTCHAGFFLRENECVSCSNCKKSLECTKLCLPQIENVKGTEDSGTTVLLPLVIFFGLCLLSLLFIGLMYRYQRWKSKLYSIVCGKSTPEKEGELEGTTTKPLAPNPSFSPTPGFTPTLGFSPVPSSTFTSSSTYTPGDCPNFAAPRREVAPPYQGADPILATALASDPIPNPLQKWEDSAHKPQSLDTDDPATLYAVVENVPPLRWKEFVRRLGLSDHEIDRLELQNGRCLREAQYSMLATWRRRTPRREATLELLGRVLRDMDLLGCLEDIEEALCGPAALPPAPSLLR

B1: SEQ ID NO. 63 (peptide)
peptide: cyclo([bhcLeu][Nle][4Pal][Pip2c]W[NMeE]N[4Pal][Trp(7-Cl)][αMeS][Phe(4-COOH)][Phe4AcPip][Sar][Trp(βS-Me,7-OMe)])
modifications: reading uncertain; also: printed as cyclo(bhcLeu-Nle-4Pal-Pip2c-W-NMeE-N-4Pal-Trp7Cl-aMeS-Phe4COOH-Phe4AcPip-Sar-SbMeW7OMe)
B2: SEQ ID NO. 76 (peptide)
peptide: {CH2CO}-[Nle][4Pal][Pip2c]W[d(αMeP)]N[4Pal][Trp(7-Cl)][αMeS][Phe(4-COOH)]Y[Sar][Trp(βS-Me,7-OMe)]C-NH2
modifications: thioether N-14 (inferred); reading uncertain; also: printed as cyclo(ClAc-Nle-4Pal-Pip2c-W-daMeP-N-4Pal-Trp7Cl-aMeS-Phe4COOH-Y-Sar-SbMeW7OMe-C)-NH2
B3: SEQ ID NO. 137 (peptide)
peptide: cyclo([bhcLeu][hL][4Pal][Pip2c]W[NMeE]N[4Pal][Trp(7-Cl)][αMeS][Phe(4-COOH)]Y[Sar][Trp(βS-Me,7-OMe)])
modifications: reading uncertain; also: printed as cyclo(bhcLeu-hL-4Pal-Pip2c-W-NMeE-N-4Pal-Trp7Cl-aMeS-Phe4COOH-Y-Sar-SbMeW7OMe)
B4: SEQ ID NO. 126 (peptide)
peptide: cyclo([bhcLeu][Nle][4Pal][Pipt5OH]W[NMeE]N[4Pal][Trp(7-Cl)][αMeS][Phe(4-CONH2)][TyrOcm][Sar][Trp(βS-Me,7-OMe)])
modifications: reading uncertain; also: printed as cyclo(bhcLeu-Nle-4Pal-Pipt5OH-W-NMeE-N-4Pal-Trp7Cl-aMeS-Phe4CONH2-TyrOcm-Sar-SbMeW7OMe)
B5: SEQ ID NO. 7 (peptide)
peptide: cyclo([bhcLeu][Nle][4Pal][Pip2c]W[NMeE]N[4Pal][Trp(7-Cl)][αMeS][Phe(2-F,4-COOH)]Y[Sar][Trp(βS-Me,7-OMe)])
modifications: reading uncertain; also: printed as cyclo(bhcLeu-Nle-4Pal-Pip2c-W-NMeE-N-4Pal-Trp7Cl-aMeS-Phe2F4COOH-Y-Sar-SbMeW7OMe)
B6: SEQ ID NO. 24 (peptide)
peptide: cyclo([bhcLeu][Nle][4Pal][Pip2c]W[NMeE]N[4Pal][Trp(7-Cl)][αMeS][Phe(4-COOH)][Tyr3OMe][Sar][Trp(βS-Me,7-OMe)])
modifications: reading uncertain; also: printed as cyclo(bhcLeu-Nle-4Pal-Pip2c-W-NMeE-N-4Pal-Trp7Cl-aMeS-Phe4COOH-Tyr3OMe-Sar-SbMeW7OMe)
B7: SEQ ID NO. 75 (peptide)
peptide: {CH2CO}-[Nle][4Pal][Pip2c]W[NMeE][Qdm][4Pal][Trp(7-Cl)][αMeS][Phe(4-COOH)]Y[Sar][Trp(βS-Me,7-OMe)]C-NH2
modifications: thioether N-14 (inferred); reading uncertain; also: printed as cyclo(ClAc-Nle-4Pal-Pip2c-W-NMeE-Qdm-4Pal-Trp7Cl-aMeS-Phe4COOH-Y-Sar-SbMeW7OMe-C)-NH2
B8: SEQ ID NO. 138 (peptide)
peptide: cyclo([bhcLeu][Nle][4Pal][Pip2c]W[NMeE]N[TZAla][Trp(7-Cl)][αMeS][Phe(4-COOH)]Y[Sar][Trp(βS-Me,7-OMe)])
modifications: reading uncertain; also: printed as cyclo(bhcLeu-Nle-4Pal-Pip2c-W-NMeE-N-TZAla-Trp7Cl-aMeS-Phe4COOH-Y-Sar-SbMeW7OMe)
B9: SEQ ID NO. 142 (peptide)
peptide: cyclo([bhcLeu][SerOEt][4Pal][Pipt5OH]W[dHyp]N[4Pal][Trp(7-Cl)][αMeS][Phe(4-CONH2)][Phe(4-COOH)][Sar][Trp(βS-Me,7-OMe)])
modifications: reading uncertain; also: printed as cyclo(bhcLeu-SerOEt-4Pal-Pipt5OH-W-dProt4OH-N-4Pal-Trp7Cl-aMeS-Phe4CONH2-Phe4COOH-Sar-SbMeW7OMe)
B10: SEQ ID NO. 55 (peptide)
peptide: cyclo([bhcLeu][Ahp′][SbMe4Pal]DW[dHyp]N[Phe(4-COOH)][Trp(7-CN)][αMeS][Phe(4-CONH2)][Phe(4-CONH2)][Sar][Trp(βS-Me,7-OMe)])
modifications: reading uncertain; also: printed as cyclo(bhcLeu-Ahp-SbMe4Pal-D-W-dProt4OH-N-Phe4COOH-Trp7CN-aMeS-Phe4CONH2-Phe4CONH2-Sar-SbMeW7OMe)
B11: SEQ ID NO. 65 (peptide)
peptide: {CH2CO}-[Nle][PyrimAla][Pip2c][Trp(7-aza)][NMeE]N[4Pal][Trp(7-Cl)][αMeS][Phe(4-COOH)]Y[Sar][Trp(βS-Me,7-OMe)]C-NH2
modifications: thioether N-14; reading uncertain; also: printed as cyclo(ClAc-Nle-PyrimAla-Pip2c-Trp7az-NMeE-N-4Pal-Trp7Cl-aMeS-Phe4COOH-Y-Sar-SbMeW7OMe-C)-NH2
B12: SEQ ID NO. 69 (peptide)
peptide: cyclo([cAcBu][Nle][4Pal][Pip2c]W[NMeE]N[4Pal][Trp(7-Cl)][αMeS][Phe(4-COOH)]Y[Sar][Trp(βS-Me,7-OMe)])
modifications: reading uncertain; also: printed as cyclo(cAcBu-Nle-4Pal-Pip2c-W-NMeE-N-4Pal-Trp7Cl-aMeS-Phe4COOH-Y-Sar-SbMeW7OMe)
B13: SEQ ID NO. 52 (peptide)
peptide: {CH2CO}-[Nle][4Pal][Pip2c][TrpCH2COOH][NMeE]N[Phe(4-COOH)][Trp(7-Cl)][αMeS][Phe(4-CONH2)]Y[Sar][Trp(βS-Me,7-OMe)]C-NH2
modifications: thioether N-14; reading uncertain; also: printed as cyclo(ClAc-Nle-4Pal-Pip2c-TrpCH2COOH-NMeE-N-Phe4COOH-Trp7Cl-aMeS-Phe4CONH2-Y-Sar-SbMeW7OMe-C)-NH2
B14: SEQ ID NO. 40 (peptide)
peptide: cyclo([bhcLeu][Nle][3Pal][Pip2c]W[NMeE]N[4Pal][Trp(7-Cl)][αMeS][Phe(4-COOH)]Y[Sar][Trp(βS-Me,7-OMe)])
modifications: reading uncertain; also: printed as cyclo(bhcLeu-Nle-3Pal-Pip2c-W-NMeE-N-4Pal-Trp7Cl-aMeS-Phe4COOH-Y-Sar-SbMeW7OMe)
B15: SEQ ID NO. 64 (peptide)
peptide: cyclo([bhcLeu][Nle][4Pal][Pip2c]W[NMeE][MO2][4Pal][Trp(7-Cl)][αMeS][Phe(4-COOH)]Y[Sar][Trp(βS-Me,7-OMe)])
modifications: reading uncertain; also: printed as cyclo(bhcLeu-Nle-4Pal-Pip2c-W-NMeE-MO2-4Pal-Trp7Cl-aMeS-Phe4COOH-Y-Sar-SbMeW7OMe)
B16: SEQ ID NO. 28 (peptide)
peptide: cyclo([bhcLeu][Nle][4Pal][Pip2c]W[NMeE]N[4Pal][Trp(7-Cl)][αMeS][Phe(3-COOH)]Y[Sar][Trp(βS-Me,7-OMe)])
modifications: reading uncertain; also: printed as cyclo(bhcLeu-Nle-4Pal-Pip2c-W-NMeE-N-4Pal-Trp7Cl-aMeS-Phe3COOH-Y-Sar-SbMeW7OMe)
B17: SEQ ID NO. 25 (peptide)
peptide: cyclo([bhcLeu][Nle][4Pal][Pipt5OH]W[dHyp][SbOHAsn][4Pal][Trp(7-CN)][αMeS][Phe(4-CONH2)][Phe(4-COOH)][Sar][Trp(βS-Me,7-OMe)])
modifications: reading uncertain; also: printed as cyclo(bhcLeu-Nle-4Pal-Pipt5OH-W-dProt4OH-SbOHAsn-4Pal-Trp7CN-aMeS-Phe4CONH2-Phe4COOH-Sar-SbMeW7OMe)

Target: T1, TNFR1 on THP-1 Lucia NF-kB reporter …
Assay: cell-based or functional assay

| THP-1 IC50 | Binder |
| --- | --- |
| 1.2 nM | B1 |
| 4.7 nM | B2 |
| 1.3 nM | B3 |
| 0.8 nM | B4 |
| 1.6 nM | B5 |
| 1.9 nM | cyclo([bhcLeu][LysMe3][4Pal][Pip′]W[NMeE]N[4Pal][Trp(7-Cl)][αMeS][Phe(4-COOH)]Y[Sar][Trp(βS-Me,7-OMe)]) [SEQ ID NO. 47] |
| 0.7 nM | B6 |
| 6.1 nM | B7 |
| 2 nM | B8 |
| 1.1 nM | B9 |
| 1.4 nM | cyclo([bhcLeu][Nle][4Pal][Pipt5OH][Trp(7-aza)][dNMeE]N[F4SO2NH2][Trp(7-CN)][αMeS][Phe(4-CONH2)][Phe(4-COOH)][Sar][Trp(βS-Me,7-OMe)]) (reading uncertain) [SEQ ID NO. 133] |
| 16.2 nM | {CH2CO}-[Nle][4Pal][Pip′][Trp(7-aza)][NMeE]N[Phe(4-CH2NH2)][Trp(7-Cl)][αMeS][Phe(4-CH2NH2)]Y[Sar][Trp(βS-Me,7-OMe)]C-NH2 (thioether N-14) [SEQ ID NO. 58] |
| 2.8 nM | {CH2CO}-[Nle][4Pal][Pipc4OH]W[NMeE]N[4Pal][Trp(7-Cl)][αMeS][Phe(4-COOH)]Y[Sar][Trp(βS-Me,7-OMe)]C-NH2 (thioether N-14 (inferred)) [SEQ ID NO. 71] |
| 1.3 nM | B10 |
| 4 nM | B11 |
| 1.6 nM | B12 |
| 3.9 nM | B13 |
| 1.5 nM | B14 |
| 1.1 nM | B15 |
| 1.6 nM | B16 |
| 0.8 nM | B17 |
